# Source: IntAct's records for PubMed 26555173
# B1: Sterol regulatory element-binding protein cleavage-activating protein (Cricetulus griseus (Chinese hamster)), P97260 (parent)
# chain: MTLTERLREKISQAFYNHGLLCASYPIPIILFTGLCILACCYPLLKLPLPGTGPVEFSTPVKDYSPPPVDSDHKQGEPSEQPEWYVGAPVAYIQQIFVKSSVSPWHKNLLAVDVFRLPLSRAFQLVEEIRNHVLRDSSGTKSLEEVCLQVTDLLPGLRKLRNLLPEHGCLLLSPGNFWQNDWERFHADPDIIGTIHQHEPKTLQTSATLKDLLFGVPGKYSGVSLYTRKRTVSYTITLVFQRYHAKFLSSLRARLMLLHPSPNCSLRAENLVHVHFKEEIGIAELIPLVTTYIILFAYIYFSTRKIDMVKSKWGLALAAVVTVLSSLLMSVGLCTLFGLTPTLNGGEIFPYLVVVIGLENVLVLTKSVVSTPVDLEVKLRIAQGLSSESWSIMKNVATELGIILIGYFTLVPAIQEFCLFAVVGLVSDFFLQMFFFTTVLSIDIRRMELADLNKRLPPESCLPSAKPVGRPARYERQLAVRPAMPHTITLQPSSFRNLRLPKRLRVIYFLARTRLAQRLIMAGTVVWIGILVYTDPAGLRTYLAAQVTEQSPLGEGSLGPMPVPSGVLPASRPDPAFSIFPPDAPKLPENQTVPGELPEHAAPAEGVHDSRAPEVTWGPEDEELWRRLSFRHWPTLFNYYNITLAKRYISLLPVIPVTLRLNPQEALEGRQPQDGRSAWAPPESLPAGLWEAGPKGPGGTQAHGDITLYKVAALGLAAGIVLVLLLLCLYRVLCPRNYGQPGGGAGRRRRGELPCDDYGYAPPETEIVPLVLRGHLMDIECLASDGMLLVSCCLAGQVCVWDAQTGDCLTRIPRPGSRRDSCGGGAFETQENWERLSDGGKTSPEEPGESPPLRHRPRGPPQPALFGDQPDLTCLIDTNFSVQLPPEPTQPEPRHRAGCGRARDSGYDFSRLVQRVYQEEGLAAVRMPALRPPSPGSPLPQASQEDGAAPEKGSPPLAWAPSTAGSIWSLELQGNLIVVGRSSGRLEVWDAIEGVLCCSNDEVSSGITALVFLDRRIVAARLNGSLDFFSLETHTSLSPLQFRGTPGRGSSPSSSVYSSSNTVACHLTHTVPCAHQKPITALRAAAGRLVTGSQDHTLRVFRLEDSCCLFTLQGHSGAITTVYIDQTMVLASGGQDGAICLWDVLTGSRVSHTFAHRGDVTSLTCTTSCVISSGLDDLINIWDRSTGIKLYSIQQDLGCGASLGVISDNLLVTGGQGCVSFWDLNYGDLLQTVYLGKNSEAQPARQILVLDNAAIVCNFGSELSLVYVPSVLEKLD
# partner: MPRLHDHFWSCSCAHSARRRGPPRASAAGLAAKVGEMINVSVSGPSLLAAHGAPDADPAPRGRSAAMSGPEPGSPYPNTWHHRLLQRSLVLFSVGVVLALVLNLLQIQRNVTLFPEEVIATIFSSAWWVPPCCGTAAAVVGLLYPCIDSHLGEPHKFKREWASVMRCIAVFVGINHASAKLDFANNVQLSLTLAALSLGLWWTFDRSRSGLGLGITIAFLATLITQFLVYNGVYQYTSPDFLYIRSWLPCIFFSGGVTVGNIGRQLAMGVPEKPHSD
# Variants of: B1
# Conditions: with insi1_human INSIG1, O15503
row,Variant,effect of a mutation on the interaction
1,N263E;N590E;N641E,increasing interaction strength
